# Measured values taken from patent US20160297884A1 (Pfizer, published 2016).
# T1: Human BCMA (human, UniProt Q02223 1-54, limits assumed)
# T1 construct: Soluble analyte in SPR; construct not described; also called huBCMA; B-cell maturation antigen
# T1 sequence (looked up): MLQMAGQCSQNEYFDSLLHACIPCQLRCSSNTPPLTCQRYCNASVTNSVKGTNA
# Tests used:
# cynomolgus monkey BCMA = target: T2, cynomolgus monkey BCMA (cynomolgus monkey, UniProt A0A2K5UD97 1-53); test: SPR, IgG immobilised, 25 C
# T2 construct: Soluble analyte in SPR; construct not described; also called cyBCMA; Cyno BCMA
# Method: (§1) All experiments were performed on a Bio-Rad Proteon XPR36 surface Plasmon resonance biosensor (Bio-Rad, Hercules, Calif.). […] The analysis temperature for the immobilization was 25° C. and the running buffer was HBS-T+(10 mM HEPES, 150 mM NaCl, 0.05% Tween-20, pH 7.4). Channels were activated in the analyte (horizontal) direction by injecting a mixture of 1 mM ECD and 0.25 mM NHS for 3 minutes at a flow rate of 30 μL/min. IgGs were immobilized on the activated spots by injecting them in the ligand (vertical) direction at 20 μg/mL in 10 mM Acetate pH 4.5 buffer for 1.5 minutes at […]. The activated surfaces were blocked by injecting 1M ethanolamine, pH 8.5 in the analyte direction for 3 minutes at 30 μL/min.
# (§2) The analysis temperature for the BCMA binding analysis was 37° C. or 25° C. in a running buffer of HBS-T+, supplemented with 1 mg/mL BSA. A kinetic titration method was employed for the interaction analysis as described in Abdiche, et al. Human BCMA (huBCMA) or cynomolgus monkey BCMA (cyBCMA) analyte was injected in the analyte direction using a series of injections from low to high concentration. The concentrations used were 0.08 nM, 0.4 nM, 2 nM, 10 nM and 50 nM (a 5-membered series, with a 5-fold dilution factor and top concentration of 50 nM). The association time for a given analyte dilution was two minutes. Immediately after the 50 nM BCMA injection, dissociation was monitored for 2 hours.
# (§3) The sensorgrams were double-referenced and fit to a 1:1 Langmuir with mass transport kinetic titration model in BIAevaluation Software version 4.1.1 (GE Lifesciences, Piscataway, N.J.).
# Human BCMA = target: T1, Human BCMA; test: SPR, IgG immobilised, 25 C
# Method: as §1, §2, §3
# T2 sequence (A0A2K5UD97 entry or part of it): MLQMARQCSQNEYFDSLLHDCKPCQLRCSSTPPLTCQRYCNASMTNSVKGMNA
Binder,Kd (cynomolgus monkey BCMA),T ½ (cynomolgus monkey BCMA),koff (cynomolgus monkey BCMA),kon (cynomolgus monkey BCMA),Kd (Human BCMA),T ½ (Human BCMA),koff (Human BCMA),kon (Human BCMA)
"L1.GDF/L3.NY/H3.AQ (antibody, V domains shown, IgG) VH: EVQLLESGGGLVQPGGSLRLSCAASGFTFGSYAMTWVRQAPGKGLEWVSAISGSGGNTFYADSVKGRFTISRDNSKNTLYLQMNSLRAEDTAVYYCARVSPIAAQMDYWGQGTLVTVSS VL: EIVLTQSPGTLSLSPGERATLSCRASQSVGDFYLAWYQQKPGQAPRLLIYGASSRATGIPDRFSGSGSGTDFTLTISRLEPEDFAVYYCQHYNYPPSFTFGQGTKVEIK",1.2 nM,8.5 min,0.00136 s⁻¹,1.18e+06 M⁻¹ s⁻¹,0.73 nM,16 min,0.000722 s⁻¹,984000 M⁻¹ s⁻¹
"L1.GDF/L3.NY/P6E01 (antibody, V domains shown, IgG) VH: EVQLLESGGGLVQPGGSLRLSCAASGFTFGSYAMTWVRQAPGKGLEWVSAISGSGGNTFYADSVKGRFTISRDNSKNTLYLQMNSLRAEDTAVYYCARVSPIASGMDYWGQGTLVTVSS VL: EIVLTQSPGTLSLSPGERATLSCRASQSVGDFYLAWYQQKPGQAPRLLIYGASSRATGIPDRFSGSGSGTDFTLTISRLEPEDFAVYYCQHYNYPPSFTFGQGTKVEIK",6.4 nM,1.5 min,0.00767 s⁻¹,1.2e+06 M⁻¹ s⁻¹,3.7 nM,1.95 min,0.00592 s⁻¹,1.6e+06 M⁻¹ s⁻¹
"L1.GDF/L3.PY/H3.AQ (antibody, V domains shown, IgG) VH: EVQLLESGGGLVQPGGSLRLSCAASGFTFGSYAMTWVRQAPGKGLEWVSAISGSGGNTFYADSVKGRFTISRDNSKNTLYLQMNSLRAEDTAVYYCARVSPIAAQMDYWGQGTLVTVSS VL: EIVLTQSPGTLSLSPGERATLSCRASQSVGDFYLAWYQQKPGQAPRLLIYGASSRATGIPDRFSGSGSGTDFTLTISRLEPEDFAVYYCQHYPYPPSFTFGQGTKVEIK",10.7 nM,0.7 min,0.0166 s⁻¹,1.55e+06 M⁻¹ s⁻¹,9.49 nM,0.86 min,0.0135 s⁻¹,1.42e+06 M⁻¹ s⁻¹
"L1.LGF/L3.KW/H3.AQ (antibody, V domains shown, IgG) VH: EVQLLESGGGLVQPGGSLRLSCAASGFTFGSYAMTWVRQAPGKGLEWVSAISGSGGNTFYADSVKGRFTISRDNSKNTLYLQMNSLRAEDTAVYYCARVSPIAAQMDYWGQGTLVTVSS VL: EIVLTQSPGTLSLSPGERATLSCRASQSLGSFYLAWYQQKPGQAPRLLIYGASSRATGIPDRFSGSGSGTDFTLTISRLEPEDFAVYYCKHYGWPPSFTFGQGTKVEIK",6.7 nM,3.3 min,0.00355 s⁻¹,527000 M⁻¹ s⁻¹,1.82 nM,12.1 min,0.000956 s⁻¹,524000 M⁻¹ s⁻¹
"L1.LGF/L3.KW/H3.AL (antibody, V domains shown, IgG) VH: EVQLLESGGGLVQPGGSLRLSCAASGFTFGSYAMTWVRQAPGKGLEWVSAISGSGGNTFYADSVKGRFTISRDNSKNTLYLQMNSLRAEDTAVYYCARVSPIAALMDYWGQGTLVTVSS VL: EIVLTQSPGTLSLSPGERATLSCRASQSLGSFYLAWYQQKPGQAPRLLIYGASSRATGIPDRFSGSGSGTDFTLTISRLEPEDFAVYYCKHYGWPPSFTFGQGTKVEIK",41.8 nM,1 min,0.0121 s⁻¹,290000 M⁻¹ s⁻¹,2.87 nM,9.4 min,0.00123 s⁻¹,428000 M⁻¹ s⁻¹
"L1.LGF/L3.KW/H3.AP (antibody, V domains shown, IgG) VH: EVQLLESGGGLVQPGGSLRLSCAASGFTFGSYAMTWVRQAPGKGLEWVSAISGSGGNTFYADSVKGRFTISRDNSKNTLYLQMNSLRAEDTAVYYCARVSPIAAPMDYWGQGTLVTVSS VL: EIVLTQSPGTLSLSPGERATLSCRASQSLGSFYLAWYQQKPGQAPRLLIYGASSRATGIPDRFSGSGSGTDFTLTISRLEPEDFAVYYCKHYGWPPSFTFGQGTKVEIK",27.8 nM,0.7 min,0.0154 s⁻¹,554000 M⁻¹ s⁻¹,2.44 nM,5.1 min,0.00227 s⁻¹,928000 M⁻¹ s⁻¹
